In paper PMC2978023 (Journal of immunology (Baltimore, Md. : 1950), 2008):
Ends that are not written are not given here.

Tests used:
Test in all cases: ELISA
[1] = biological target: recombinant purified integrin αMβ2 (UniProt P11215 17-1152; P05107 23-769)
[2] = biological target: recombinant purified β2 integrin subunit (UniProt P05107 23-769)
[3] = biological target: recombinant purified αM integrin subunit (UniProt P11215 17-1152)

| Kd [1] [nM] | Kd [2] [nM] | Kd [3] [nM] | Binder |
| --- | --- | --- | --- |
| 12 | 50 | 100 | KIIPFNRLTIG (also: biotin label, position not given here) [peptide P2-C, Fgγ(385)KIIPFNRLTIG(395)] |
| – | > 100000 | – | GWTVFQKRLDGSV (also: biotin label, position not given here) [peptide P1, Fgγ(190)GWTVFQKRLDGSV(202)] |
